From patent US20210000940A1 come the findings set out here.

In test [1] the target is Andes virus glycoprotein Gc, wild type (Andes orthohantavirus CHI-7913) (UniProt Q9E006).
The target is the same in test [2]. The source holds these as a separate data set.

Like-named read-outs stand apart in the source and are kept apart here.

With “Andes virus glycoprotein Gn, wild type (from UniProt Q9E006 19-651)”, the melting temperature (Tm) of temperature-induced Gn/Gc dissociation in test [1] was determined as 37.7 °C; in test [2] it was 36.3 °C.
